Results taken from the Immune Epitope Database (IEDB).

Key:
[1] = biological target: HLA-A*02:11; assay: IEDB peptide-MHC binding, purified MHC/competitive/fluorescence; filed as Kd, often an IC50 or EC50 that approximates it; ≥ and ≤ were set here for values at or beyond the usual limits of such assays; conditions: source organism: Encephalitozoon cuniculi GB-M1
[2] = biological target: HLA-A*02:06; assay: as above; conditions: source organism: Encephalitozoon cuniculi GB-M1
[3] = biological target: HLA-A*02:12; assay: as above; conditions: source organism: Encephalitozoon cuniculi GB-M1
[4] = biological target: HLA-A*02:19; assay: as above; conditions: source organism: Encephalitozoon cuniculi GB-M1
[5] = biological target: HLA-A*02:16; assay: as above; conditions: source organism: Encephalitozoon cuniculi GB-M1
[6] = biological target: HLA-A*69:01; assay: as above; conditions: source organism: Encephalitozoon cuniculi GB-M1
[7] = biological target: HLA-A*02:01; assay: as above
[8] = biological target: HLA-A*02:03; assay: as above; conditions: source organism: Encephalitozoon cuniculi GB-M1
[9] = biological target: HLA-A*02:50; assay: as above
[10] = biological target: HLA-A*01:01; assay: IEDB peptide-MHC binding, purified MHC/direct/fluorescence; filed as Kd, often an IC50 or EC50 that approximates it; ≥ and ≤ were set here for values at or beyond the usual limits of such assays
[11] = biological target: HLA-A*80:01; assay: as above
[12] = biological target: HLA-B*27:05; assay: IEDB peptide-MHC binding, purified MHC/competitive/fluorescence; filed as Kd, often an IC50 or EC50 that approximates it; ≥ and ≤ were set here for values at or beyond the usual limits of such assays
[13] = biological target: HLA-A*02:12; assay: IEDB peptide-MHC binding, purified MHC/direct/fluorescence; filed as Kd, often an IC50 or EC50 that approximates it; ≥ and ≤ were set here for values at or beyond the usual limits of such assays; conditions: source organism: Giardia lamblia ATCC 50803
[14] = biological target: HLA-A*02:16; assay: as above; conditions: source organism: Giardia lamblia ATCC 50803
[15] = biological target: HLA-A*69:01; assay: as above; conditions: source organism: Giardia lamblia ATCC 50803
[16] = biological target: HLA-A*02:01; assay: as above; conditions: source organism: Giardia lamblia ATCC 50803
[17] = biological target: HLA-A*03:19; assay: IEDB peptide-MHC binding, purified MHC/competitive/fluorescence; filed as Kd, often an IC50 or EC50 that approximates it; ≥ and ≤ were set here for values at or beyond the usual limits of such assays
[18] = biological target: HLA-B*45:06; assay: as above
[19] = biological target: HLA-A*32:15; assay: as above; conditions: source organism: Mus musculus
[20] = biological target: HLA-B*15:42; assay: as above
[21] = biological target: HLA-C*06:02; assay: as above
[22] = biological target: HLA-B*83:01; assay: as above
[23] = biological target: HLA-A*68:23; assay: as above; conditions: source organism: Mus musculus
[24] = biological target: HLA-B*39:01; assay: as above
[25] = biological target: HLA-A*32:07; assay: as above
[26] = biological target: HLA-A*31:01; assay: as above
[27] = biological target: HLA-B*27:20; assay: as above
[28] = biological target: HLA-C*14:02; assay: IEDB peptide-MHC binding, purified MHC/direct/fluorescence; filed as Kd, often an IC50 or EC50 that approximates it; ≥ and ≤ were set here for values at or beyond the usual limits of such assays
[29] = biological target: HLA-C*15:02; assay: as above
[30] = biological target: HLA-C*06:02; assay: as above; conditions: source organism: Yersinia pestis Nepal516
[31] = biological target: HLA-C*05:01; assay: as above; conditions: source organism: Yersinia pestis Nepal516
[32] = biological target: HLA-B*58:01; assay: IEDB peptide-MHC binding, purified MHC/competitive/fluorescence; filed as Kd, often an IC50 or EC50 that approximates it; ≥ and ≤ were set here for values at or beyond the usual limits of such assays
[33] = biological target: HLA-B*40:13; assay: as above; conditions: source organism: Escherichia coli O157:H7 str. EDL933
[34] = biological target: HLA-C*07:02; assay: IEDB peptide-MHC binding, purified MHC/direct/fluorescence; filed as Kd, often an IC50 or EC50 that approximates it; ≥ and ≤ were set here for values at or beyond the usual limits of such assays; conditions: source organism: Escherichia coli O157:H7 str. EDL933
[35] = source organism: Encephalitozoon cuniculi GB-M1
[36] = source organism: Mammarenavirus lassaense
[37] = source organism: Camelpox virus M-96
[38] = source organism: Yersinia pestis Nepal516
[39] = source organism: Escherichia coli O157:H7 str. EDL933

## ALEEGRKYV
[1]
  Kd: 2.9 nM
[2]
  Kd: 8.7 nM
[3]
  Kd: 42.5 nM
[4]
  Kd: 437 nM
[5]
  Kd: 6.8 nM
[6]
  Kd: 5700 nM
[7]; [35]
  Kd: 654 nM
[8]
  Kd: 29 nM
[9]; [35]
  Kd: 12.3 nM

## ALTDLGLIY
[10]; [36]
  Kd: 34.7 nM
[11]; [36]
  Kd: 1.8 nM

## GKVERMVQY
[12]; source organism: Escherichia coli 536
  Kd: ≥ 20000 nM

## GMNPYHLAA
[9]; source organism: Giardia lamblia ATCC 50803
  Kd: 12.7 nM
[13]
  Kd: 296 nM
[14]
  Kd: 65 nM
[15]
  Kd: ≥ 20000 nM
[16]
  Kd: 4380 nM

## GVPKTHLEL
[17]; source organism: Mus musculus
  Kd: 3230 nM
[18]; source organism: Mus musculus
  Kd: ≥ 5000 nM
[19]
  Kd: ≥ 20000 nM
[20]; source organism: Mus musculus
  Kd: ≥ 5000 nM
[21]; source organism: Mus musculus
  Kd: 1350 nM
[22]; source organism: Mus musculus
  Kd: ≥ 5000 nM
[23]
  Kd: 23.1 nM

## MTDLSKKGY
[10]; [37]
  Kd: 2.8 nM
[11]; [37]
  Kd: ≥ 20000 nM

## NRDGDSYYY
[11]; source organism: Yellow fever virus
  Kd: 478 nM

## RAMRMVYYL
[17]; [38]
  Kd: 206 nM
[18]; [38]
  Kd: ≥ 5000 nM
[24]; [38]
  Kd: 421 nM
[20]; [38]
  Kd: ≥ 5000 nM
[12]; [38]
  Kd: 157 nM
[25]; [38]
  Kd: 77.6 nM
[26]; [38]
  Kd: 4 nM
[7]; [38]
  Kd: 0.8 nM
[22]; [38]
  Kd: ≥ 5000 nM
[27]; [38]
  Kd: 14 nM
[28]; [38]
  Kd: 960 nM
[29]; [38]
  Kd: 34 nM
[30]
  Kd: 798 nM
[31]
  Kd: 124 nM

## RMMGVKYLM
[17]; [39]
  Kd: 886 nM
[18]; [39]
  Kd: ≥ 5000 nM
[24]; [39]
  Kd: 2190 nM
[20]; [39]
  Kd: ≥ 5000 nM
[32]; [39]
  Kd: 16.8 nM
[25]; [39]
  Kd: 1.1 nM
[33]
  Kd: 3.2 nM
[26]; [39]
  Kd: 2.1 nM
[21]; [39]
  Kd: 798 nM
[7]; [39]
  Kd: 2 nM
[22]; [39]
  Kd: ≥ 5000 nM
[27]; [39]
  Kd: 34 nM
[28]; [39]
  Kd: 2340 nM
[29]; [39]
  Kd: 2080 nM
[34]
  Kd: 859 nM

## VSLGAISFW
[32]; source organism: Influenza A virus (A/Leningrad/1954/1(H1N1))
  Kd: ≤ 1 nM
